Results from US20040204348A1.
Bridges are numbered along the chain shown (N, C = ends). L15 (R1 : phenyl) = linker L15: -CO-CH2-NH-CO-CH2-CH2-CH(CO-NH-CH2-CO-NH-R1)-NH- with R1 = phenyl (anilide)

Molecular target: recombinant soluble uPAR (suPAR), Q03405
Experiment: SPR (Biacore 3000), competition with scuPA
Conditions: remark: other sources report otherwise

Sequence of recombinant soluble uPAR (suPAR), Q03405 (Q03405 23-299 limits assumed): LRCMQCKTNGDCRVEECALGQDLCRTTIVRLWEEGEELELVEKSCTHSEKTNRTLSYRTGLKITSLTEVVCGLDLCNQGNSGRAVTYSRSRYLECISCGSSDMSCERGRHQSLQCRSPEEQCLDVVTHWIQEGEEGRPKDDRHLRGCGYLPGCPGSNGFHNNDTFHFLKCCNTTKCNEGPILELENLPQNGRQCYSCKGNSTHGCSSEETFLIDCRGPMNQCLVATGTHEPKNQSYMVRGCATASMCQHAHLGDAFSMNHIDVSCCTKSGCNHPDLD

B1: Å36 (peptide)
peptide: VSNKYFSNIHW
modifications: linker N-C via L15 (R1 : phenyl); also: cyclised by linker L15 between X1 N and X11 carbonyl
Kd: 4 nM
